Experimental data reported in PMC8198134, “Structural Basis for the Diminished Ligand Binding and Catalytic Ability of Human Fetal-Specific CYP3A7” (International Journal of Molecular Sciences, 2021).

Substrate: O=c1cc(C(F)(F)F)c2ccc(OCc3ccccc3)cc2o1
Assay: purified protein
Type: biochemical, Homo sapiens
Conditions: heme

B1: CYP3A7mut (Homo sapiens; C77G/K244E/K421A/K422A/K424A/R69G) (protein)
chain: YLYGTRTHGLFKKLGIPGPTPLPFLGNALSFRKGYWTFDMECYKKYGKVWGIYDGQQPMLAITDPDMIKTVLVKECYSVFTNRRPFGPVGFMKNAISIAEDEEWKRIRSLLSPTFTSGKLKEMVPIIAQYGDVLVRNLRREAETGKPVTLKHVFGAYSMDVITSTSFGVSIDSLNNPQDPFVENTKKLLRFNPLDPFVLSIKVFPFLTPILEALNITVFPREVISFLTKSVKQIKEGRLKETQKHRVDFLQLMIDSQNSKDSETHKALSDLELMAQSIIFIFAGYETTSSVLSFIIYELATHPDVQQKVQKEIDTVLPNKAPPTYDTVLQLEYLDMVVNETLRLFPVAMRLERVCKKDVEINGMFIPKGVVVMIPSYVLHHDPKYWTEPEKFLPERFSAANADNIDPYIYTPFGSGPRNCIGMRFALVNMKLALVRVLQNFSFKPCKETQIPLKLRFGGLLLTEKPIVLKAESRDETVSGA
notes: Δ3-22 (lacking the membrane tether, residues 3-22), C-terminal 4-histidine tag
Km: 11 ± 1 µM
kcat: 0.000567 ± 8.33e-05 s⁻¹
kcat/Km: 51.7 M⁻¹ s⁻¹
